Positions count from the first letter of the chain named.
B1: Oryza sativa phytoene desaturase with C-terminal His6 (OsPDS-His6), wild type (enzyme, UniProt A2XDA1 88-578, looked up)
chain: AGQLSSFFRNSEQPTKPLQVVIAGAGLAGLSTAKYLADAGHKPILLEARDVLGGKIAAWKDEDGDWYETGLHIFFGAYPNIQNLFGELGINDRLQWKEHSMIFAMPNKPGEFSRFDFPETLPAPLNGIWAILRNNEMLTWPEKVKFALGLLPAMVGGQAYVEAQDGFTVSEWMKKQGVPDRVNDEVFIAMSKALNFINPDELSMQCILIALNRFLQEKHGSKMAFLDGNPPERLCMPIVDHVRSLGGEVRLNSRIQKIELNPDGTVKHFALTDGTQITGDAYVFATPVDILKLLVPQEWKEISYFKKLEKLVGVPVINVHIWFDRKLKNTYDHLLFSRSSLLSVYADMSVTCKEYYDPNRSMLELVFAPAEEWVGRSDTEIIEATMQELAKLFPDEIAADQSKAKILKYHVVKTPRSVYKTIPDCEPCRPLQRSPIEGFYLAGDYTKQKYLASMEGAVLSGKLCAQSVVEDYKMLSRRSLKSLQSEVPVAS
notes: residue numbers count on the immature protein A2XDA1.2 including the transit peptide; the GPC done here is described only as 'homooligomer'; Cloned through an NdeI site, so a start methionine probably precedes residue 88 (surmised); also called rice PDS-His6; wild type PDS; not shown: His6, C-terminal, kept
B2: Oryza sativa phytoene desaturase Arg300Ser mutant (Arg300Ser PDS) (enzyme, UniProt A2XDA1 88-578, looked up)
chain: B1 chain with R213S
notes: residue numbers count on the immature protein A2XDA1.2 including the transit peptide; Same construct as m1 apart from the mutation; about 70% in the FAD holo form, like the wild type; also called mutant enzyme Arg300Ser; source: E. coli, purified

Target: the molecule itself
Experiment: SEC; gel permeation chromatography (GPC) of the purified protein on a Superose 6 10/300 GL column, elution monitored at 280 nm, carried out as in ref. 6

Protein	binding result
B1	binds
B2	binds

Reference: PMC5703498, “Plant-type phytoene desaturase: Functional evaluation of structural implications” (PLoS ONE, 2017)
